Laboratory results taken from paper PMC5586252, “PP2A-B′ holoenzyme substrate recognition, regulation and role in cytokinesis” (Cell Discovery, 2017).

Target: GST-tagged B′γ1 regulatory subunit (UniProt Q13362)
Assay: pull-down; 10 μg GST-tagged B′γ1 immobilised; titrated concentrations of phosphorylated or non-phosphorylated Cyk4 (1–177)

A concentration at half maximum binding of 2.5 to 5 µM and a lowest concentration at which the interaction is detected of 0.6 µM were found for “pCyk4 (1–177), Plk1-phosphorylated (from UniProt Q9H0H5 1-177) (domain or fragment)” in this work.
